# Measured values taken from patent US20250043302A1, “MUTATED HYDROXYPHENYLPYRUVATE DIOXYGENASE POLYPEPTIDE, AND CODING GENE AND USE THEREOF” (BEIJING DABEINONG BIOTECHNOLOGY CO., LTD., priority 2021, published 2025).
# B1: AsHPPDm-F372A-F383W-02: nucleotide sequence encoding Avena sativa HPPD with F372A+F383W; vector DBN11726 (nucleic acid)
# DNA: ATGCCACCTACTCCAGCTACAGCTACTGGTGCTGCTGCTGCTGCCGTTACTCCTGAGCACGCTGCCAGGTCATTCCCCAGGGTGGTTCGCGTGAACCCCAGATCTGATAGGTTCCCAGTTCTGAGCTTCCACCATGTTGAGCTGTGGTGCGCTGATGCTGCTTCTGCTGCTGGCAGGTTCTCTTTCGCTCTTGGTGCTCCACTCGCTGCTAGATCTGATCTGTCTACAGGAAATAGCGCTCATGCCTCACTCCTGCTTCGCTCAGGTGCTTTGGCCTTCCTCTTCACCGCTCCATATGCTCCCCCACCTCAGGAGGCTGCTACTGCTGCTGCTACAGCCTCCATTCCAAGCTTCTCAGCTGATGCCGCTAGAACCTTCGCTGCTGCTCATGGACTTGCCGTGAGGTCTGTTGGTGTTCGCGTGGCTGATGCTGCTGAGGCTTTCAGAGTTTCCGTTGCCGGCGGAGCTAGGCCAGCTTTCGCTCCTGCTGATTTGGGACATGGTTTCGGCCTGGCTGAGGTTGAGCTTTACGGTGACGTGGTTCTCCGCTTCGTGTCTTACCCAGATGAGACTGACCTGCCTTTCCTTCCCGGCTTCGAGAGAGTTTCCTCTCCTGGTGCCGTGGATTACGGCCTGACAAGGTTCGACCACGTGGTTGGAAACGTTCCCGAGATGGCTCCAGTGATCGATTACATGAAGGGCTTCCTTGGATTCCATGAGTTCGCCGAGTTCACTGCTGAGGACGTGGGAACCACTGAGTCCGGTTTGAACTCTGTGGTTCTCGCCAACAATTCTGAGGCTGTTTTGCTCCCTCTGAATGAGCCTGTGCATGGAACCAAGAGGAGAAGCCAGATTCAAACTTACCTGGAGTACCACGGTGGCCCTGGAGTTCAGCATATCGCCCTTGCTTCTAATGATGTGTTGCGCACACTCAGAGAGATGCGCGCCAGAACCCCCATGGGAGGTTTCGAGTTCATGGCCCCACCACAGGCTAAGTACTACGAGGGCGTTAGAAGGATTGCTGGAGACGTGTTGAGCGAGGAGCAGATCAAGGAGTGCCAAGAGCTGGGTGTTCTTGTGGATAGGGATGACCAGGGCGTTCTGCTTCAAATTGCCACTAAGCCAGTGGGCGACCGCCCTACATTCTGGCTTGAGATGATTCAAAGAATCGGCTGCATGGAGAAGGATGAGGTTGGACAGGAGTACCAAAAGGGCGGATGCGGTGGCTTCGGAAAGGGTAACTTCAGCGAGTTGTTCAAGTCAATCGAGGACTACGAGAAGAGCCTCGAGGTGAAGCAGTCAGTGGTTGCCCAAAAGTCCTGA
# modifications: AsHPPDm-F372A-F383W-02 Nucleotide Sequence
# notes: vector DBN11726
# Key:
# Type in all cases: in vivo
# [1] = test system: Arabidopsis thaliana T1 plants; test: Topramezone tolerance of transgenic Arabidopsis thaliana T1 plants (spray, bleached leaf area grade, damage score); settings: for Classification and statistics of the grade of pesticide damage: Grade 0 / Classification and statistics of the grade of pesticide damage: Grade 1 / Classification and statistics of the grade of pesticide damage: Grade 2 / Classification and statistics of the grade of pesticide damage: Grade 3: number of plants; for Classification and statistics of the grade of pesticide damage: Grade 0 / Classification and statistics of the grade of pesticide damage: Grade 1 / Classification and statistics of the grade of pesticide damage: Grade 2 / Classification and statistics of the grade of pesticide damage: Grade 3 / Scores / Resistance evaluation: 7 DAT, Table 1; for Scores: pesticide damage score 0-100
# From the text: T1 transformants were initially selected from the untransformed seeds using a glufosinate selection scheme. The Arabidopsis thaliana T1 plants (AsHPPD-02) into which the AsHPPD-02 nucleotide sequence was introduced, the Arabidopsis thaliana T1 plants (AsHPPDm-F372A-02) into which the AsHPPDm-F372A-02 nucleotide sequence was introduced, the Arabidopsis thaliana T1 plants (AsHPPDm-F383W-02) into which the AsHPPDm-F383W-02 nucleotide sequence was introduced, the Arabidopsis thaliana T1 plants (AsHPPDm-F372A-F383W-02) into which the AsHPPDm-F372A-F383W-02 nucleotide sequence was introduced, the Arabidopsis thaliana T1 plants (DBN11726N) into which the control recombinant expression vector DBN11726N was introduced, and the wild-type Arabidopsis thaliana plants (CK) (18 days after sowing) were sprayed respectively with topramezone at three concentrations (100 g ai/ha (four-fold field concentration, 4×), 200 g ai/ha (eight-fold field concentration, 8×), and 0 g ai/ha (water, 0×)), isoxaflutole at three concentrations (140 g ai/ha (two-fold field concentration, 2×), 280 g ai/ha (four-fold field concentration, 4×), and 0 g ai/ha (water, 0×)), and mesotrione at three concentrations (210 g ai/ha (two-fold field concentration, […]), 420 g ai/ha (four-fold field concentration, 4×), and 0 g ai/ha (water, 0×)), to determine the tolerance of Arabidopsis thaliana to the herbicides. The degree of damage caused by the herbicide was measured for each plant according to the proportion of bleached leaf area (the proportion of bleached leaf area=bleached leaf area/total leaf area×100%) 7 days after spraying (7 DAT): the case where there is basically no bleached phenotype is defined as grade 0, the case where the proportion of bleached leaf area is less than 50% is defined as grade 1, the case where the proportion of bleached leaf area is more than 50% is defined as grade 2, and the case where the proportion of bleached leaf area is 100% grade is defined as grade 3.
# According to the method as described above in point 6 of Example 1, the aforementioned Arabidopsis thaliana T1 plants and wild-type Arabidopsis thaliana plants (CK) (18 days after sowing) were sprayed respectively with topramezone at three concentrations (25 g ai/ha (one-fold field concentration, 1×). 100 g ai/ha (four-fold field concentration, 4×), and 0 g ai/ha (water, 0×)), isoxaflutole at three concentrations (35 g ai/ha (half-fold field concentration, 0.5×). 70 g ai/ha (one-fold field concentration, 1×), and 0 g ai/ha (water, 0×)), and mesotrione at three concentrations (52.5 g ai/ha (half-fold field concentration, 0.5×), 105 g ai/ha (one-fold field concentration, 1×), and 0 g ai/ha (water, 0×)) to detect the tolerance of Arabidopsis thaliana to the herbicides.
# According to the method as described above in point 6 of Example 1, the aforementioned Arabidopsis thaliana T1 plants and wild-type Arabidopsis thaliana plants (CK) (18 days after sowing) were sprayed with topramezone at three different concentrations (i.e., 100 g ai/ha (four-fold field concentration, 4×), 200 g ai/ha (eight-fold field concentration, 8×) and 0 g ai/ha (water, 0×)), isoxaflutole at three different concentrations (i.e., 140 g ai/ha (two-fold field concentration, 2×), 280 g ai/ha (four-fold field concentration, 4×) and 0 g ai/ha (water, 0×)), and mesotrione at three different concentrations (i.e., 210 g ai/ha (two-fold field concentration, 2×), 420 g ai/ha (four-fold field concentration, 4×) and 0 g ai/ha (water, 0×)) respectively to detect the herbicide tolerance of Arabidopsis thaliana. […]
# [2] = test system: Arabidopsis thaliana T1 plants; test: Isoxaflutole tolerance of transgenic Arabidopsis thaliana T1 plants (spray, bleached leaf area grade, damage score); settings: for Resistance evaluation / Classification and statistics of the grade of pesticide damage: Grade 0 / Classification and statistics of the grade of pesticide damage: Grade 1 / Classification and statistics of the grade of pesticide damage: Grade 2 / Classification and statistics of the grade of pesticide damage: Grade 3 / Scores: 7 DAT, Table 2; for Classification and statistics of the grade of pesticide damage: Grade 0 / Classification and statistics of the grade of pesticide damage: Grade 1 / Classification and statistics of the grade of pesticide damage: Grade 2 / Classification and statistics of the grade of pesticide damage: Grade 3: number of plants; for Scores: pesticide damage score 0-100;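 as to Scores: Weighted damage index from 0 to 100 where higher means more damage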
# Method in brief: (§1)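 Damage was assessed by bleaching grade (0 none; 1 <50%; 2 >50%; 3 100% of leaf area) one week after spraying. Sprays on 18-day-old T1 and wild-type plants used field-rate multiples: topramezone 25–200, isoxaflutole 35–280, mesotrione 52.5–420 g ai/ha.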
# [3] = test system: Arabidopsis thaliana T1 plants; test: Mesotrione tolerance of transgenic Arabidopsis thaliana T1 plants (spray, bleached leaf area grade, damage score); parameters: Scores: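 damage score 0-100 computed as Σ(N×S)/(T×M)×100 over grades 0-3 with higher meaning more damage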; settings: for Resistance evaluation / Classification and statistics of the grade of pesticide damage: Grade 0 / Classification and statistics of the grade of pesticide damage: Grade 1 / Classification and statistics of the grade of pesticide damage: Grade 2 / Classification and statistics of the grade of pesticide damage: Grade 3 / Scores: 7 DAT, Table 3; for Classification and statistics of the grade of pesticide damage: Grade 0 / Classification and statistics of the grade of pesticide damage: Grade 1 / Classification and statistics of the grade of pesticide damage: Grade 2 / Classification and statistics of the grade of pesticide damage: Grade 3: number of plants; for Scores: pesticide damage score 0-100
# Method in brief: as §1
# [4] = mesotrione 210 g ai/ha (two-fold field concentration)
molecule,measurement,setting,value
B1,Classification and statistics of the grade of pesticide damage: Grade 0,[1]; topramezone 100 g ai/ha (4×),16
same,Classification and statistics of the grade of pesticide damage: Grade 1,[1]; topramezone 100 g ai/ha (4×),0
same,Classification and statistics of the grade of pesticide damage: Grade 2,[1]; topramezone 100 g ai/ha (4×),0
same,Classification and statistics of the grade of pesticide damage: Grade 3,[1]; topramezone 100 g ai/ha (4×),0
same,Classification and statistics of the grade of pesticide damage: Grade 0,[1]; topramezone 200 g ai/ha (8×),16
same,Classification and statistics of the grade of pesticide damage: Grade 1,[1]; topramezone 200 g ai/ha (8×),0
same,Classification and statistics of the grade of pesticide damage: Grade 2,[1]; topramezone 200 g ai/ha (8×),0
same,Classification and statistics of the grade of pesticide damage: Grade 3,[1]; topramezone 200 g ai/ha (8×),0
same,Scores,[1]; topramezone 100 g ai/ha (4×),0
same,Scores,[1]; topramezone 200 g ai/ha (8×),0
same,Resistance evaluation,[1]; topramezone 100 g ai/ha (4×),highly resistant (highly resistant plants (scores 0-15))
same,Resistance evaluation,[1]; topramezone 200 g ai/ha (8×),highly resistant (highly resistant plants (scores 0-15))
same,tolerance to topramezone (resistance class),[1]; topramezone at four-fold or eight-fold field concentration,highly-resistant
same,tolerance to isoxaflutole (in words),[2]; in vivo,different degrees of tolerance
same,Resistance evaluation,[2]; isoxaflutole 140 g ai/ha (2×),highly resistant (highly resistant plants (scores 0-15))
same,Resistance evaluation,[2]; isoxaflutole 280 g ai/ha (4×),highly resistant (highly resistant plants (scores 0-15))
same,tolerance to isoxaflutole (resistance class),[2]; isoxaflutole at four-fold field concentration,highly-resistant
same,tolerance to isoxaflutole (resistance class),[2]; isoxaflutole at two-fold field concentration,highly-resistant
same,Classification and statistics of the grade of pesticide damage: Grade 0,[2]; isoxaflutole 140 g ai/ha (2×),16
same,Classification and statistics of the grade of pesticide damage: Grade 1,[2]; isoxaflutole 140 g ai/ha (2×),0
same,Classification and statistics of the grade of pesticide damage: Grade 2,[2]; isoxaflutole 140 g ai/ha (2×),0
same,Classification and statistics of the grade of pesticide damage: Grade 3,[2]; isoxaflutole 140 g ai/ha (2×),0
same,Classification and statistics of the grade of pesticide damage: Grade 0,[2]; isoxaflutole 280 g ai/ha (4×),12
same,Classification and statistics of the grade of pesticide damage: Grade 1,[2]; isoxaflutole 280 g ai/ha (4×),4
same,Classification and statistics of the grade of pesticide damage: Grade 2,[2]; isoxaflutole 280 g ai/ha (4×),0
same,Classification and statistics of the grade of pesticide damage: Grade 3,[2]; isoxaflutole 280 g ai/ha (4×),0
same,Scores,[2]; isoxaflutole 140 g ai/ha (2×),0
same,Scores,[2]; isoxaflutole 280 g ai/ha (4×),8
same,tolerance to mesotrione (in words),[3]; in vivo,different degrees of tolerance
same,Resistance evaluation,[3]; [4],highly resistant (highly resistant plants (scores 0-15))
same,Resistance evaluation,[3]; mesotrione 420 g ai/ha (4×),highly resistant (highly resistant plants (scores 0-15))
same,tolerance to mesotrione (resistance class),[3]; mesotrione at four-fold field concentration,highly-resistant
same,tolerance to mesotrione (resistance class),[3]; mesotrione at two-fold field concentration,highly-resistant
same,Classification and statistics of the grade of pesticide damage: Grade 0,[3]; [4],16
same,Classification and statistics of the grade of pesticide damage: Grade 1,[3]; [4],0
same,Classification and statistics of the grade of pesticide damage: Grade 2,[3]; [4],0
same,Classification and statistics of the grade of pesticide damage: Grade 3,[3]; [4],0
same,Classification and statistics of the grade of pesticide damage: Grade 0,[3]; mesotrione 420 g ai/ha (4×),15
same,Classification and statistics of the grade of pesticide damage: Grade 1,[3]; mesotrione 420 g ai/ha (4×),1
same,Classification and statistics of the grade of pesticide damage: Grade 2,[3]; mesotrione 420 g ai/ha (4×),0
same,Classification and statistics of the grade of pesticide damage: Grade 3,[3]; mesotrione 420 g ai/ha (4×),0
same,Scores,[3]; [4],0
same,Scores,[3]; mesotrione 420 g ai/ha (4×),2
